A word on the IC50: it is the concentration that inhibits the measured activity by half. High values mean weaker potency in that assay, low ones greater potency in that assay.

First the molecules themselves.
B1: HER2/neu peptide, position 851, 10 amino acids (peptide)
peptide: VLVKSPNHVK
notes: Synthetic A3 supermotif peptide
B2: HER2/neu peptide, position 713, 10 amino acids (peptide)
peptide: RILKETELRK
notes: as for B1
B3: HER2/neu peptide, position 840, 10 amino acids (peptide)
peptide: RLVHRDLAAR
notes: as for B1
B4: Her2/neu.166 (10 amino acids) (peptide)
peptide: TILWKDIFHK
notes: Synthetic A3 supermotif peptide; also called HER2/neu peptide, position 166, 10 amino acids
B5: HER2/neu peptide, position 423, 10 amino acids (peptide)
peptide: SVFQNLQVIR
notes: as for B1
B6: HER2/neu peptide, position 24, 9 amino acids (peptide)
peptide: QVCTGTDMK
notes: as for B1
B7: HER2/neu peptide, position 745, 9 amino acids (peptide)
peptide: NVKIPVAIK
notes: as for B1
B8: HER2/neu peptide, position 948, 10 amino acids (peptide)
peptide: TIDVYMIMVK
notes: as for B1
B9: HER2/neu peptide, position 832, 9 amino acids (peptide)
peptide: GMSYLEDVR
notes: also called Her2/neu.832 (9-mer)
B10: HER2/neu peptide, position 1038, 9 amino acids (peptide)
peptide: GAGGMVHHR
notes: also called Her2/neu.1038 (9-mer)
B11: HER2/neu peptide, position 976, 10 amino acids (peptide)
peptide: FSRMARDPQR
notes: also called Her2/neu.976 (10-mer)
B12: HER2/neu peptide, position 704, 10 amino acids (peptide)
peptide: GAMPNQAQMR
notes: also called Her2/neu.704 (10-mer)
B13: HER2/neu peptide, position 334, 10 amino acids (peptide)
peptide: CSKPCARVCY
B14: HER2/neu peptide, position 601, 10 amino acids (peptide)
peptide: PSGVKPDLSY
B15: HER2/neu peptide, position 40, 11 amino acids (peptide)
peptide: ETHLDMLRHLY
notes: also called Her2/neu.40
B16: HER2/neu peptide, position 401, 11 amino acids (peptide)
peptide: ETLEEITGYLY
notes: also called Her2/neu.401
B17: HER2/neu peptide, position 1102, 11 amino acids (peptide)
peptide: PTHDPSPLQRY
B18: HER2/neu peptide, position 714, 9 amino acids (peptide)
peptide: ILKETELRK
B19: HER2/neu peptide, position 478, 10 amino acids (peptide)
peptide: HTVPWDQLFR
notes: also called Her2/neu.478
B20: HER2/neu peptide, position 673, 9 amino acids (peptide)
peptide: ILIKRRQQK
B21: HER2/neu peptide, position 668, 9 amino acids (peptide)
peptide: GVVFGILIK
B22: HER2/neu peptide, position 167, 9 amino acids (peptide)
peptide: ILWKDIFHK
notes: also called Her2/neu.167
B23: HER2/neu peptide, position 822, 10 amino acids (peptide)
peptide: LLNWCMQIAK
B24: HER2/neu peptide, position 753, 10 amino acids (peptide)
peptide: KVLRENTSPK
B25: Her2/neu.28 (peptide)
peptide: GTDMKLRLPASPETH
B26: Her2/neu.693 (peptide)
peptide: ETELVEPLTPSGAMP
B27: Her2/neu.30 (peptide)
peptide: DMKLRLPASPETHLD
B28: Her2/neu.883 (peptide)
peptide: KVPIKWMALESILRR
B29: Her2/neu.651 (peptide)
peptide: LTSIISAVVGILLVV
B30: Her2/neu.861 (peptide)
peptide: ITDFGLARLLDIDET

In the first assay the target is HLA-A*3101 (human). The experiment in a line: inhibition of 125I-labelled standard peptide binding to purified HLA, gel filtration. A general note: SEC sorts molecules by how far they enter the pores of the column.
Regarding B1, the relative binding ratio was 0.0052 ratio (IC50 of standard peptide / IC50 of test peptide).

Turning to B2, the relative binding ratio is 0.0055 ratio (IC50 of standard peptide / IC50 of test peptide).

Regarding B3, the relative binding ratio was 0.95 ratio (IC50 of standard peptide / IC50 of test peptide).

Consider B4, for which the relative binding ratio is 0.037 ratio (IC50 of standard peptide / IC50 of test peptide).

For B5, the relative binding ratio was 0.034 ratio (IC50 of standard peptide / IC50 of test peptide).

With B6, the relative binding ratio was 0.0002 ratio (IC50 of standard peptide / IC50 of test peptide).

Turning to B7, the relative binding ratio is 0.0015 ratio (IC50 of standard peptide / IC50 of test peptide).

B8: the relative binding ratio was 0.0018 ratio (IC50 of standard peptide / IC50 of test peptide).

A further assay has as its target HLA-A*3301 (human). The assay is described as above.
With B1, the relative binding ratio is 0.0032 ratio (IC50 of standard peptide / IC50 of test peptide).

For the molecule B2, the relative binding ratio was 0.0013 ratio (IC50 of standard peptide / IC50 of test peptide).

In the case of B3, the relative binding ratio is 0.0021 ratio (IC50 of standard peptide / IC50 of test peptide).

For B4, the relative binding ratio was 0.042 ratio (IC50 of standard peptide / IC50 of test peptide).

B5: the relative binding ratio is 0.039 ratio (IC50 of standard peptide / IC50 of test peptide).

As for B6, the relative binding ratio was 0.0006 ratio (IC50 of standard peptide / IC50 of test peptide).

On to B7, for which the relative binding ratio was 0.082 ratio (IC50 of standard peptide / IC50 of test peptide).

For B8, the relative binding ratio is 0.012 ratio (IC50 of standard peptide / IC50 of test peptide).

A further assay has as its target HLA-A*0301 (human). The assay is described as above.
B1: the relative binding ratio was 0.082 ratio (IC50 of standard peptide / IC50 of test peptide).

On to B2, for which the relative binding ratio was 0.057 ratio (IC50 of standard peptide / IC50 of test peptide).

Take B3: the relative binding ratio was 0.18 ratio (IC50 of standard peptide / IC50 of test peptide).

Consider B4, for which the relative binding ratio was 0.043 ratio (IC50 of standard peptide / IC50 of test peptide).

Take B5: the relative binding ratio is 0.017 ratio (IC50 of standard peptide / IC50 of test peptide).

In the case of B6, the relative binding ratio was 0.0007 ratio (IC50 of standard peptide / IC50 of test peptide).

As to B7, the relative binding ratio was 0.0058 ratio (IC50 of standard peptide / IC50 of test peptide).

B8: the relative binding ratio is 0.013 ratio (IC50 of standard peptide / IC50 of test peptide).

The target of the next assay is HLA-A*1101 (human). The description is as above.
In the case of B1, the relative binding ratio is 0.0072 ratio (IC50 of standard peptide / IC50 of test peptide).

Consider B2, for which the relative binding ratio is 0.11 ratio (IC50 of standard peptide / IC50 of test peptide).

On to B3, for which the relative binding ratio is 0.0001 ratio (IC50 of standard peptide / IC50 of test peptide).

Take B4: the relative binding ratio is 3.6 ratio (IC50 of standard peptide / IC50 of test peptide).

Consider B5, for which the relative binding ratio was 0.075 ratio (IC50 of standard peptide / IC50 of test peptide).

Regarding B6, the relative binding ratio is 0.052 ratio (IC50 of standard peptide / IC50 of test peptide).

For the molecule B7, the relative binding ratio is 0.0007 ratio (IC50 of standard peptide / IC50 of test peptide).

As to B8, the relative binding ratio is 0.12 ratio (IC50 of standard peptide / IC50 of test peptide).

Another assay concerns the target HLA-A*6801 (human). Described as above.
With B1, the relative binding ratio was 0.0005 ratio (IC50 of standard peptide / IC50 of test peptide).

B2: the relative binding ratio was 0.0002 ratio (IC50 of standard peptide / IC50 of test peptide).

With B3, the relative binding ratio is 0.0036 ratio (IC50 of standard peptide / IC50 of test peptide).

In the case of B4, the relative binding ratio was 0.04 ratio (IC50 of standard peptide / IC50 of test peptide).

With B5, the relative binding ratio was 0.25 ratio (IC50 of standard peptide / IC50 of test peptide).

Take B6: the relative binding ratio is 0.011 ratio (IC50 of standard peptide / IC50 of test peptide).

With B7, the relative binding ratio is 0.12 ratio (IC50 of standard peptide / IC50 of test peptide).

As for B8, the relative binding ratio is 0.025 ratio (IC50 of standard peptide / IC50 of test peptide).

For the next assay, the target named is T1, HLA-A*0301 (purified HLA class I molecule) (human).
T1 construct: also called A3
As to the kind of experiment: inhibition of 125I probe peptide binding to purified HLA; ratio to standard peptide; minus sign not explained.
Take B9: the relative binding ratio is -0.0002 ratio (IC50 standard / IC50 test).

Consider B10, for which the relative binding ratio was -0.0002 ratio (IC50 standard / IC50 test).

In the case of B11, the relative binding ratio was -0.0002 ratio (IC50 standard / IC50 test).

As for B12, the relative binding ratio was -0.0002 ratio (IC50 standard / IC50 test).

The next assay addresses HLA-A*1101 (purified HLA class I molecule) (human). The experiment in a line: inhibition of 125I probe peptide binding to purified HLA; ratio to standard peptide.
With B9, the relative binding ratio is 0.0002 ratio (IC50 standard / IC50 test).

For the molecule B10, the relative binding ratio was 0.0043 ratio (IC50 standard / IC50 test).

For B11, the relative binding ratio is 0.001 ratio (IC50 standard / IC50 test).

For the molecule B12, the relative binding ratio is 0.0041 ratio (IC50 standard / IC50 test).

In another assay the target is T2, HLA-A*0101 (human).
T2 construct: also called HLA-A1
As to the kind of experiment: competition with 125I-labelled probe peptide for purified HLA-A*0101, gel filtration.
Take B13: the relative binding ratio is 0.0016 ratio (IC50 of standard peptide / IC50 of test peptide).

In the case of B14, the relative binding ratio was 0.001 ratio (IC50 of standard peptide / IC50 of test peptide).

As to B15, the relative binding ratio is 0.28 ratio (IC50 of standard peptide / IC50 of test peptide).

For the molecule B16, the relative binding ratio was 0.44 ratio (IC50 of standard peptide / IC50 of test peptide).

Turning to B17, the relative binding ratio is 0.016 ratio (IC50 of standard peptide / IC50 of test peptide).

For a further assay, the target named is HLA-A*0301 (purified HLA class I molecule) (human). As to the kind of experiment: competition vs 125I standard peptide, purified HLA.
Consider B18, for which the relative binding ratio is 0.019 ratio (IC50 standard/IC50 test).

For B19, the relative binding ratio is 0.0035 ratio (IC50 standard/IC50 test).

For the molecule B20, the relative binding ratio is 0.38 ratio (IC50 standard/IC50 test).

For B21, the relative binding ratio is 0.0047 ratio (IC50 standard/IC50 test).

Regarding B22, the relative binding ratio is 0.28 ratio (IC50 standard/IC50 test).

Turning to B23, the relative binding ratio is 0.14 ratio (IC50 standard/IC50 test).

For B24, the relative binding ratio is 0.38 ratio (IC50 standard/IC50 test).

The next assay deals with T3, HLA-A*1101 (purified HLA class I molecule) (human).
T3 construct: Purified MHC molecule
The experiment in a line: competition vs 125I standard peptide, purified HLA.
Consider B18, for which the relative binding ratio was 0.0023 ratio (IC50 standard/IC50 test).

For the molecule B19, the relative binding ratio is 0.072 ratio (IC50 standard/IC50 test).

In the case of B20, the relative binding ratio was 0.0097 ratio (IC50 standard/IC50 test).

For the molecule B21, the relative binding ratio is 0.089 ratio (IC50 standard/IC50 test).

For B22, the relative binding ratio is 0.31 ratio (IC50 standard/IC50 test).

For the molecule B23, the relative binding ratio was 0.14 ratio (IC50 standard/IC50 test).

As for B24, the relative binding ratio was 0.22 ratio (IC50 standard/IC50 test).

For another assay, the target named is T4, HLA-A*6801 (purified HLA class I molecule) (human).
T4 construct: Purified MHC molecule
As to the kind of experiment: competition vs 125I standard peptide, purified HLA.
Consider B18, for which the relative binding ratio is 0.0001 ratio (IC50 standard/IC50 test).

Take B19: the relative binding ratio is 2 ratio (IC50 standard/IC50 test).

For B20, the relative binding ratio is 0.0001 ratio (IC50 standard/IC50 test).

For B21, the relative binding ratio was 0.0011 ratio (IC50 standard/IC50 test).

With B22, the relative binding ratio is 0.0046 ratio (IC50 standard/IC50 test).

As for B23, the relative binding ratio was 0.0086 ratio (IC50 standard/IC50 test).

In the case of B24, the relative binding ratio is 0.0008 ratio (IC50 standard/IC50 test).

In the next assay the target is T5, HLA-A*3301 (purified HLA class I molecule) (human).
T5 construct: Purified MHC molecule
The experiment in a line: competition vs 125I standard peptide, purified HLA.
On to B18, for which the relative binding ratio is 0.001 ratio (IC50 standard/IC50 test).

With B19, the relative binding ratio is 0.33 ratio (IC50 standard/IC50 test).

B20: the relative binding ratio was 0.0064 ratio (IC50 standard/IC50 test).

As for B21, the relative binding ratio was 0.0025 ratio (IC50 standard/IC50 test).

With B22, the relative binding ratio was 0.03 ratio (IC50 standard/IC50 test).

For the molecule B23, the relative binding ratio was 0.0088 ratio (IC50 standard/IC50 test).

Regarding B24, the relative binding ratio is 0.0012 ratio (IC50 standard/IC50 test).

The next assay has as its target T6, HLA-A*3101 (purified HLA class I molecule) (human).
T6 construct: Purified MHC molecule
The experiment in a line: competition vs 125I standard peptide, purified HLA.
Regarding B18, the relative binding ratio is 0.0009 ratio (IC50 standard/IC50 test).

With B19, the relative binding ratio is 0.96 ratio (IC50 standard/IC50 test).

For the molecule B20, the relative binding ratio was 0.076 ratio (IC50 standard/IC50 test).

Consider B21, for which the relative binding ratio is 0.0019 ratio (IC50 standard/IC50 test).

In the case of B22, the relative binding ratio was 0.22 ratio (IC50 standard/IC50 test).

As for B23, the relative binding ratio is 0.01 ratio (IC50 standard/IC50 test).

With B24, the relative binding ratio is 0.0068 ratio (IC50 standard/IC50 test).

In the next assay the target is T7, HLA-DRB1*0101 (human).
T7 construct: also called DR1
As to the kind of experiment: competition with 125I probe peptide, purified HLA.
Molecule B25 registered an IC50 of 5000 nM.

On to B26, for which the IC50 was determined as 833 nM.

Consider B27, for which the IC50 was determined as 5000 nM.

With B28, the IC50 was determined as 2.3 nM.

B29 had an IC50 of 26 nM.

With B30, the IC50 was 1040 nM.

The values above are taken from patent publication US20040018971A1 (published 2004).
